Laboratory results as given in PMC9060518.

Target: KCNQ5-ER-c

block of KCNQ2/5-tandem currents by 10 mM TEA in HEK293T cells: 48 % block
Substance: KCNQ2-ER-n (from UniProt O43526)
